{"source": "patent US20220072094A1", "biological_target": "PLCγ1 (mouse, endogenous, hippocampus) (mouse) (UniProt Q62077)", "assay": "cell-based or functional assay", "data": [{"substance": "TrkB Y816F (mouse, trkB PLC/PLC knock-in) (from UniProt P15209 32-821) (receptor)", "values": [{"measurement": "decrease in pY783 PLCγ1 immunoreactivity in hippocampal synaptic membranes, trkB^PLC/PLC against trkB^WT/WT after normal saline (Western blot)", "value": 38, "unit": "%"}, {"measurement": "pY783 PLCγ1 immunoreactivity in hippocampal synaptic membranes after status epilepticus, trkB^WT/WT over trkB^PLC/PLC (Western blot)", "value": 1.84, "unit": "fold"}]}]}
